From the supplement of paper PMC12042874 come the findings set out here.

± gives the uncertainty stated by the source.

The series is described as follows: amyloid nucleation score (Sup35N fusion, yeast selection) (log enrichment); library NNK3; higher = more nucleation; inactive = no reads after selection. Put shortly:
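Peptides of 20 random codons, each fused to Sup35N, were expressed in psi-negative yeast. Cells were induced with 100 μM copper sulfate for 24 hours and grown 7 days at 30°C on medium lacking adenine and uracil, and plasmid inserts before and after selection were Illumina-sequenced. Nucleation scores are DiMSum log enrichments of output over input reads, centred on the mode score of non-aggregating sequences, and sequences under 100 input reads were excluded.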
MWVLSV: the amyloid nucleation score entry is “inactive”.
Consider MWVQEYKTNNGYSLA, for which the amyloid nucleation score result is “inactive”.
The value for MYFFSHPPSNRRE was “inactive”; that for MYFSFLW was 0.18 ± 0.47.
MYLNNFAWRVTVWNIFVHAL gave an amyloid nucleation score of 0.512 ± 0.16.
Consider MYPYAITVTGMFLLVPSCLD, for which the amyloid nucleation score result is “inactive”.
On to MYQMSTVKRRRVGGSNDMCV, for which the amyloid nucleation score entry was “inactive”.
The value for MYRLIVYT was “inactive”.
As to MYWTNRHLQNIFWVKRNCGM, the amyloid nucleation score entry was “inactive”.
The value for NAGHICFVVVTKWREFASVY was “inactive”; that for NAHCMVLMHRAKVWIFMINK was “inactive”; that for NAKPCSGPTMTGADEFPLCL was “inactive”.
As to NALILAT, the amyloid nucleation score result is “inactive”.
For the substance NARGVKSDEILN, the amyloid nucleation score result is “inactive”.
Consider NATSQLVVGAVQ, for which the amyloid nucleation score entry was “inactive”.
Take NCCQFPVDAS: the amyloid nucleation score result is “inactive”.
The value for NCDIPFFTRSEIVFLFVDFI was “inactive”; that for NCHAGPYEVYLVVGPELLLK was “inactive”; that for NCPSWGGFGIATSGQR was “inactive”.
Turning to NCRRRKCVTGGGRS, the amyloid nucleation score amounted to 1.16 ± 0.17.
In the case of NCRVMITVIYTICNVVFLSC, the amyloid nucleation score result is “inactive”.
The value for NCRYIVAPMKQLYMGIEMVL was “inactive”; that for NCYFIQGWSSLMYSKGFNKC was “inactive”.
The value for NDFCLIYYICGS was 0.743 ± 0.17; that for NDFSPVRWTVLDTDDPK was “inactive”; that for NDHSEGTCSIRERQTSRWML was “inactive”.
Turning to NDLSDSMRVR, the amyloid nucleation score result is “inactive”.
As to NDRIYCGGDYPTNH, the amyloid nucleation score result was “inactive”.
Consider NDYGDGVSHLMGTGTPTSLW, for which the amyloid nucleation score result is “inactive”.
With NECLVDTA the entry was “inactive”; with NEIFIRLLSNMKEPR, 1.31 ± 0.14; with NENHGCYMGRVFQCGIYEYV, 1.44 ± 0.13.
The value for NEVMGFFNDQWRMIWWGYPR was “inactive”.
On to NFCNLLFR, for which the amyloid nucleation score entry was “inactive”.
The value for NFEIFSRVQWDLC was “inactive”.
With NFFMGLLSSRSMGLTWYWCM the entry was “inactive”; with NFIIWWVLDISVERIRINEV, “inactive”; with NFITRWCGFSGSA, 0.608 ± 0.2.
Consider NFMGVYLVWNFIVVFKVHYV, for which the amyloid nucleation score entry was “inactive”.
The value for NFMPNKYCNVELVFWGDLGI was 1.59 ± 0.12; that for NFRLYLLNCN was “inactive”.
In turn, NFRPEKHINLMVCKSLPFV had an amyloid nucleation score of 0.705 ± 0.21.
As to NFRSSI, the amyloid nucleation score entry is “inactive”.
With NFSIRCTWLVVNNAVDLRDN the figure was 2.94 ± 0.049.
The value for NFVMLEKPDRTDLPGCTKQR was “inactive”; that for NGDGLVLYIRLLRLRRHVDT was “inactive”; that for NGFCSASICREDCEMWNMQS was “inactive”.
On to NGGVLAGTMG, for which the amyloid nucleation score result is “inactive”.
With NGKVLM the entry was “inactive”; with NGNFSVRFSVKS, “inactive”; with NGSHDRGVPAELSAFKG, “inactive”.
With NGSLREKSGSVCKRIL, the amyloid nucleation score entry is “inactive”.
The value for NGSNFFDCSQFLCSFGGDVV was 2.45 ± 0.072; that for NGVMGRGLYTKSQRSYCDNN was “inactive”; that for NGYLACSPFS was “inactive”.
With NHGLLTKGMISAFRII the entry was “inactive”; with NHLGVRWVLSMNMTFPHHNL, 1.29 ± 0.089.
With NHYATFGCSVTFAIVNWSRF the figure was 1.86 ± 0.057; with NHYCDFAVWSTFNLTLHHSL, “inactive”.
As for NICCHISKSRPYQVYFSLQL, the amyloid nucleation score result was “inactive”.
Take NICLKNSVS: the amyloid nucleation score result was “inactive”.
With NIIFRTW the entry was “inactive”.
With NIISNDLSEASIYNGFVCNR the entry was “inactive”.
With NIMVDHS the figure was -0.476 ± 1.4; with NIMVVYPFFYGFKHNWLESI, “inactive”; with NINYTYLESVLIMGYMFREL, 2.21 ± 0.095.
For the substance NIPPLTLLAVVGS, the amyloid nucleation score entry is “inactive”.
As to NIRKPDMYLITVCWESSQAL, the amyloid nucleation score result was “inactive”.
With NISMVTSEDYMRDLLIFSTG the entry was “inactive”; with NITPRQMWVRWRQCMMGTGL, “inactive”.
The value for NKHDHLFRKFFLCISLGLAG was “inactive”; that for NKNSVFSLSYPYYVTCVGTY was “inactive”; that for NKRGNVASLLSLACKYGAEQ was “inactive”.
With NKVCLDTSAVYYSFRDKDG, the amyloid nucleation score entry is “inactive”.
The value for NKVLFYVTYLFFIRNFLV was “inactive”; that for NKWQRNSSNKFTCAQVPFFA was “inactive”; that for NKYYVRSSFELVIVYA was 0.142 ± 0.32.
The value for NLEGRKRLMILVFKCCELAI was “inactive”.
The value for NLEYCSILFKRH was 2 ± 0.095.
On to NLFSRIVHSGLRMSTNCILI, for which the amyloid nucleation score result is “inactive”.
With NLGKTLNTLYLVFTFRDVF, the amyloid nucleation score entry is “inactive”.
With NLGTATLHLSYYMDPLTT the entry was “inactive”; with NLMCVNTVGLKYGPRELSNH, “inactive”; with NLMCW, 0.958 ± 0.21.
The value for NLNFDWTPVPSFSYHAPSKF was “inactive”; that for NLRNDIYMTSICCE was “inactive”.
For the substance NLRWSLIFMFGDCWGACGCG, the amyloid nucleation score was determined as 0.476 ± 0.23.
With NLSLGQFIKAAVKFVHKPRK the figure was 1.34 ± 0.14; with NLVRFLLKFMVKEYLRFTYI, “inactive”; with NLVWFHIATEVIERNVGGGN, “inactive”.
With NLWLECNLESSQRSSLFTKL the entry was “inactive”; with NMCYSVCVHYLLTAESKCHT, “inactive”.
On to NMFRFLMCSSTRHYVRIMTN, for which the amyloid nucleation score result is “inactive”.
The value for NMIAVYLVLPRDSLGMIFTF was “inactive”.
For the substance NMIEVI, the amyloid nucleation score result was “inactive”.
With NMILFISCEIPGRGVFGRCC the figure was 1.13 ± 0.11; with NMQGLRFSRKCCEHRGFYIC, “inactive”.
Turning to NMVPNCDLLMKSRLKVSNSA, the amyloid nucleation score result was “inactive”.
On to NMYSCNSGGHKQLCLKVGDL, for which the amyloid nucleation score result is “inactive”.
The value for NNCYRMGFLCPTNRQTMEG was “inactive”; that for NNIIVVKTAS was “inactive”.
Take NNMLIGVRSVRAYKWFMHCV: the amyloid nucleation score entry was “inactive”.
Take NNPSHGTRQNTYSALGWDHT: the amyloid nucleation score entry was “inactive”.
Substance NNRVLQRRPHRFHGANVTWS registered an amyloid nucleation score of -0.677 ± 1.4.
With NNSFNYGNHGRSSVFNNLRC the entry was “inactive”; with NNVTSIN, -0.821 ± 1.1; with NNVVHEVNFLELRLRVILGY, “inactive”.
The value for NNYSPLFRTTAGYSSHFTRQ was “inactive”; that for NPDAYKERTDLVWSVVVLLW was “inactive”; that for NPFRGFLTIQCRPILRFPDK was “inactive”.
NPMGWGQLTGCFHYVAMFCS: the amyloid nucleation score result is “inactive”.
NPMTHYHMIHRSQGNCLLRR: the amyloid nucleation score entry is “inactive”.
Regarding NPRVYNMIQPAYVNWSMDVT, the amyloid nucleation score result was “inactive”.
The value for NQSGALVG was “inactive”; that for NQWIAICNPSPFRVLTAHI was “inactive”.
With NREHMAISSCRLVKHCFFWT the entry was “inactive”.
Turning to NRPSMSRGVDTRLMSLHETL, the amyloid nucleation score entry is “inactive”.
Take NRQSLGIRSYFC: the amyloid nucleation score result was “inactive”.
The value for NRYYPVGNYCARTWQTFTFL was “inactive”; that for NSCLV was “inactive”.
Take NSDFLSTVGYEGLLHTQGCA: the amyloid nucleation score result is “inactive”.
As for NSFLRVIVC, the amyloid nucleation score entry was “inactive”.
With NSGNSIAVAAALDKDTLQAG the entry was “inactive”.
As to NSIIGPTHHIVK, the amyloid nucleation score entry was “inactive”.
With NSKGMI the entry was “inactive”; with NSLCSLVLTLIWWIKCPCDV, “inactive”.
The value for NSLPCLGYGMFM was “inactive”; that for NSMRVKVRTLTVYISEFTVS was “inactive”.
With NSNSYLGTNFILNQYVLCID the entry was “inactive”; with NSSDVRQVLAIIRCGVV, “inactive”.
Regarding NSSTDFS, the amyloid nucleation score entry was “inactive”.
